According to patent US12030916 (AUCTUS BIOLOGICS, dated 2024):

Target: T1, RPtag small tight peptide (Nd2,P5A,E18A) with a C-terminal GGC sequence (C-terminal Cys reacted with maleimide-activated plate (immobilised))
T1 construct: also called RPtag small peptide; bait peptide
T1 peptide: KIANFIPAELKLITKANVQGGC
Experiment: capture ELISA, peptide immobilised on maleimide plate
Procedure: White Pierce™ Maleimide Activated Plates were washed 4× with 200 μL 50 mM phosphate pH 7.4, 150 mM NaCl, and reacted with 100 μL of RPtag small peptide that binds with high affinity to RPtag large. Specifically, RPtag small tight peptide (Nd2,P5A,E18A; […]; SEQ ID NO:5) with a C-terminal GGC sequence ([…] (SEQ ID NO:5)+GGC) dissolved in 50 mM phosphate pH 7.4, 150 mM NaCl, 10 mM EDTA overnight at room temperature as bait. Plates were then washed 4× in 50 mM phosphate pH 7.4, 150 mM NaCl, and blocked for 1 hour at room temperature with 10 mM L-Cys in the same buffer, washed 4× as before, and blocked for 1 hour at room temperature with 50 mM phosphate pH 7.4, 150 mM NaCl, 1% BSA, 0.05% Tween20 (blocking buffer).
Plates were washed 4× as before, serum samples were diluted 1:100 in blocking buffer, and then serum was incubated with the baited plates for 2 hours at room temperature. […]
To test for intact N-termini, wells were then washed 4× as before, and incubated with a 1:10,000 dilution of HRP-conjugated mouse anti-FLAG antibody (M2 clone, 1 mg/mL stock) from Sigma-Aldrich for 1 hour at room temperature. Samples were then washed 4× as before, and assayed using SuperSignal™ ELISA Femto Substrate measured using a Molecular Devices SpectraMax i3 plate reader in luminescence mode. […]

- binding result: binds
B1: RPtag large-B12 construct (RPtag large with 3xFLAG tag, proline and Cys residue, B12-maleimide conjugated, 8xHis tag removed by TEV protease) (designed binder)
chain: KTIGLVISTLNNPFFVTLKNGAEEKAKELGYKIIVEDSQNDSSKELSNVEDLIQQKVDVLLINPVDSDAVVTAIKEANSKNIPVITIDRSANGGDVVSHIASDNVKGGEMAAEFIAKALKGKGNVVELEGIPGASAARDRGKGFDEAIAKYPDIKIVAKQAADFDRSKGLSVMENILQAQPKIDAVFAQNDEMALGAIKAIEAANRQGIIVVGFDGTEDALKAIKEGKMAATIAQQPALMGSLGVEMADKYLK
modifications: B12-maleimide covalently attached at the added Cys residue (47% labeling efficiency; the preparation is a mixture of free RPtag large and B12-RPtag large conjugate); position of the Cys not stated
notes: Construct expressed with N-terminal 8xHis tag and TEV site, both removed by TEV protease before use; In the assay it stood either in mouse serum after oral gavage or as a standard of known concentration; Formulated with 1 M D-ribose for dosing; also called B12-RPtag large conjugate; B12-RPtag conjugate; not shown: N-terminal leader left after TEV cleavage: 3xFLAG tag, a proline after it and a Cys …
